Common to all, as to type: cell-based
Assay [1] addresses T1, NPSR receptor (Homo sapiens, UniProt Q6W5P4).
T1 construct: Full length cDNA for the NPSR receptor was purchased from OriGene Technologies; host or cells: HEK293T
T1 sequence (Q6W5P4 1-371): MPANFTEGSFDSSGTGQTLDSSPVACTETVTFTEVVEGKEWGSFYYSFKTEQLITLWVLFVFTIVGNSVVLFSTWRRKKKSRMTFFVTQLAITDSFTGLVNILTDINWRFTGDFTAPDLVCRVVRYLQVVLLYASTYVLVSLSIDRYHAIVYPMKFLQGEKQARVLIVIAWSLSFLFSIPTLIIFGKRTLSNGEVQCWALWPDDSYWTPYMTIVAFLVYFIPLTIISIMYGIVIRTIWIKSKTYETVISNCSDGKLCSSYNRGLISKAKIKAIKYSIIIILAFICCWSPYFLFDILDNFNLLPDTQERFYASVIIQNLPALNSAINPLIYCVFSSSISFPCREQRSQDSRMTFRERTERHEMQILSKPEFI
The assay is described as follows: CRE-luciferase reporter assay in HEK293T cells over-expressing NPSR (cAMP signaling). The conditions noted are these: for EC50 / Agonist effect (CRE) EC50: HEK293T co-transfected with CRE-luciferase reporter (50 ng), pSV-β-Gal (5 ng), NPSR plasmid (50 ng), after 36 h, 18 h with peptide in serum-free media, normalized to β-galactosidase, at least three experiments in triplicates, apparent EC50, Graphpad Prism 5.0; for EC50: read-out: Agonist effect (CRE) EC50; for bioactivity in the CRE-luciferase assay (in words): 6th position substitution mutants, HEK293T with NPSR, Fig. 3A. Here is the method: (§1) HEK293T cells seeded in 24-well plates were co-transfected with different luciferase reporters (50 ng), the pSV-β-Gal plasmid (5 ng), and the NPSR receptor plasmid (50 ng). After 36 h, cells were cultured in serum-free media for another 18 h with increasing doses of the various NPS peptides. Luciferase activities were determined using the luciferase assay kit (Promega) and normalized using β-galactosidase activities. All experiments were performed at least three times in triplicates. Data (EC50) were analyzed using Graphpad Prism 5.0.
(§2) Figure 2 Sequence comparison and lower NPSR receptor signaling ability of the L^6-NPS variant. (A) Alignment of NPS among diverse vertebrate species. Sequences were aligned by the ClustalW program. Stars indicate identical amino acids and double dots (:) indicate conserved amino acids. The predicted convertase cleavage sites (KR) were underlined and the 6th amino acid “V” or “L” in the mature peptide region are shown in bold. (B) Comparison of NPS and L^6-NPS signaling based on the CRE-luciferase assay. (C) Comparison of NPS and L^6-NPS signaling based on the NFAT luciferase assay. HEK293T cells seeded in 24-well plates were co-transfected with different luciferase reporters (50 ng), the pSV-β-Gal plasmid (5 ng), and the NPSR receptor plasmid (50 ng). After 36 h, cells were cultured in serum-free media for another 18 h with increasing doses of the various NPS peptides. EC50 values were analyzed using Graphpad Prism 5.0.
(§3) To compare the bioactivity of wide type NPS (NPS) and the SNP variant (L^6-NPS), we monitored their receptor-activation activities in vitro using HEK293T cells over-expressing NPSR. Because NPS activates NPSR by increasing cAMP production and intracellular Ca^2+ signaling, [10], we used CRE- and NFAT- response elements to measure cAMP and intracellular Ca2+ signaling respectively, [36]. As expected, treatment with wide-type NPS led to dose-dependent stimulation of both CRE- and NFAT- luciferase activities (Fig. 2B and C). We also performed the relaxin-LGR7 ligand-receptor pair as a positive control for the CRE-luciferase assay. Also, gastrin-CCKB ligand-receptor pair was used as a positive control for the SRE-luciferase assay. Cells transfected with the empty vector were also treated with NPS to serve as a negative control (Fig. S4).

The target of assay [2] is T1, NPSR receptor. Briefly: NFAT-luciferase reporter assay in HEK293T cells over-expressing NPSR (intracellular Ca2+ signaling). The conditions noted are these: HEK293T co-transfected with NFAT-luciferase reporter (50 ng), pSV-β-Gal (5 ng), NPSR plasmid (50 ng), after 36 h, 18 h with peptide in serum-free media, normalized to β-galactosidase, at least three experiments in triplicates, Graphpad Prism 5.0; for EC50: read-out: Agonist effect (NFAT) EC50. As to the method: as §1, §2, §3

In another assay the target is T2, LGR7 (Homo sapiens, UniProt Q9HBX9).
T2 construct: expressed in transfected cells; host or cells: HEK293T (inferred from the general luciferase protocol)
T2 sequence (Q9HBX9 1-757): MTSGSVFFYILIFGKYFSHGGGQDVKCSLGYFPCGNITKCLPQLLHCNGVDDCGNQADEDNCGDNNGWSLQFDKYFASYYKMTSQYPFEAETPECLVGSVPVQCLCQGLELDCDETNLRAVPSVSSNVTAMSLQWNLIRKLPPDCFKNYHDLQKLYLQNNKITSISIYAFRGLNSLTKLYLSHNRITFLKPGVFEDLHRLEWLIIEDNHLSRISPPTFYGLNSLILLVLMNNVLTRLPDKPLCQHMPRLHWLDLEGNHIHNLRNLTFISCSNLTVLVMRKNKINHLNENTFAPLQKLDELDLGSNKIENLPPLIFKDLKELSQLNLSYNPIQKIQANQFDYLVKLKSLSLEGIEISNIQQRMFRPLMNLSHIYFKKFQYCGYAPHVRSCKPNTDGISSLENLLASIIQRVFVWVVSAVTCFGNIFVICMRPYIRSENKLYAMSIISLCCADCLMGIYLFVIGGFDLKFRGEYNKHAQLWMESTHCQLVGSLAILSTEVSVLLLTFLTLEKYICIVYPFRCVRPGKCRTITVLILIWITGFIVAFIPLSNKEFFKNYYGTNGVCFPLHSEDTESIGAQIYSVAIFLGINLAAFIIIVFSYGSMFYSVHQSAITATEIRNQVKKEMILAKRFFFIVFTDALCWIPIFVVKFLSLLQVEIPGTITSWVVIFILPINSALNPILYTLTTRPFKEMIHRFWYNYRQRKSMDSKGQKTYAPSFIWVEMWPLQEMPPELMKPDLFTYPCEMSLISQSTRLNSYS
Briefly: CRE-luciferase assay, relaxin-LGR7 ligand-receptor pair (positive control). The note with it: Fig. S4.
Excerpt: as §3
Supplementary file pone.0083009.s004.pdf: Figure S4 Positive control and negative control for the CRE- and SRE- luciferase assay. […] (PDF) Click here for additional data file.

The term EC50 denotes the concentration needed to bring the measured effect to its halfway point.

Residues, ends and D or L forms follow the SMILES beside them.

Take `CSCC[C@H](NC(=O)CNC(=O)[C@@H](NC(=O)CNC(=O)[C@H](CC(C)C)NC(=O)CNC(=O)[C@H](CC(N)=O)NC(=O)[C@H](CCCNC(=N)N)NC(=O)[C@H](Cc1ccccc1)NC(=O)[C@@H](N)CO)[C@@H](C)O)C(=O)N[C@@H](CCCCN)C(=O)N[C@@H](CCCCN)C(=O)N[C@H](C(=O)N[C@@H](CO)C(=O)N[C@@H](Cc1ccccc1)C(=O)N[C@@H](CCC(N)=O)C(=O)N[C@@H](CCCNC(=N)N)C(=O)N[C@@H](C)C(=O)N[C@@H](CCCCN)C(=O)N[C@@H](CO)C(=O)O)[C@@H](C)O` [L^6-NPS] (H-SFRNGLGTGMKKTSFQRAKS-OH): the EC50 turned out to be 586 nM at NPSR receptor [1] and 975 nM at NPSR receptor [2].
Regarding “D^6-NPS: NPS mutant with aspartic acid at the 6th position (SFRNGDGTGMKKTSFQRAKS; Neuropeptide S; UniProt P0C0P6 70-89, looked up, variant V6D)”, in the assay with NPSR receptor [1], the “bioactivity in the CRE-luciferase assay (in words)” value (“bioactivity” for short) is “complete loss of bioactivity” and the “Agonist effect (CRE) EC50” value is “inactive”. The “Agonist effect (NFAT) EC50” value with NPSR receptor [2] is “inactive”.
As for `CSCC[C@H](NC(=O)CNC(=O)[C@@H](NC(=O)CNC(=O)[C@H](C)NC(=O)CNC(=O)[C@H](CC(N)=O)NC(=O)[C@H](CCCNC(=N)N)NC(=O)[C@H](Cc1ccccc1)NC(=O)[C@@H](N)CO)[C@@H](C)O)C(=O)N[C@@H](CCCCN)C(=O)N[C@@H](CCCCN)C(=O)N[C@H](C(=O)N[C@@H](CO)C(=O)N[C@@H](Cc1ccccc1)C(=O)N[C@@H](CCC(N)=O)C(=O)N[C@@H](CCCNC(=N)N)C(=O)N[C@@H](C)C(=O)N[C@@H](CCCCN)C(=O)N[C@@H](CO)C(=O)O)[C@@H](C)O` [A^6-NPS] (H-SFRNGAGTGMKKTSFQRAKS-OH), the EC50 on NPSR receptor [1] is 534 nM; at NPSR receptor [2], 958 nM.
For the compound “K^6-NPS: NPS mutant with lysine at the 6th position (SFRNGKGTGMKKTSFQRAKS; Neuropeptide S; UniProt P0C0P6 70-89, looked up, variant V6K)”, in the assay with NPSR receptor [1], the “bioactivity” value is recorded as “complete loss of bioactivity” and the “Agonist effect (CRE) EC50” value is “inactive”. Also, the “Agonist effect (NFAT) EC50” value in the assay with NPSR receptor [2] was “inactive”.
As for “F^6-NPS: NPS mutant with phenylalanine at the 6th position (SFRNGFGTGMKKTSFQRAKS; Neuropeptide S; UniProt P0C0P6 70-89, looked up, variant V6F)”, in the assay with NPSR receptor [1], the “bioactivity” value is “complete loss of bioactivity” and the “Agonist effect (CRE) EC50” value is “inactive”. In addition, the “Agonist effect (NFAT) EC50” value in the assay with NPSR receptor [2] is “inactive”.
Take “N^6-NPS: NPS mutant with asparagine at the 6th position (SFRNGNGTGMKKTSFQRAKS; Neuropeptide S; UniProt P0C0P6 70-89, looked up, variant V6N)”: in the assay with NPSR receptor [1], the “bioactivity” value is recorded as “complete loss of bioactivity” and the “Agonist effect (CRE) EC50” value is “inactive”. Also, the “Agonist effect (NFAT) EC50” value with NPSR receptor [2] was “inactive”.
With relaxin, the “stimulation of CRE-luciferase via LGR7” value on LGR7 is recorded as “normal stimulation”.
Regarding `CSCC[C@H](NC(=O)CNC(=O)[C@@H](NC(=O)CNC(=O)[C@@H](NC(=O)CNC(=O)[C@H](CC(N)=O)NC(=O)[C@H](CCCNC(=N)N)NC(=O)[C@H](Cc1ccccc1)NC(=O)[C@@H](N)CO)C(C)C)[C@@H](C)O)C(=O)N[C@@H](CCCCN)C(=O)N[C@@H](CCCCN)C(=O)N[C@H](C(=O)N[C@@H](CO)C(=O)N[C@@H](Cc1ccccc1)C(=O)N[C@@H](CCC(N)=O)C(=O)N[C@@H](CCCNC(=N)N)C(=O)N[C@@H](C)C(=O)N[C@@H](CCCCN)C(=O)N[C@@H](CO)C(=O)O)[C@@H](C)O` [NPS, Neuropeptide S, reference compound] (H-SFRNGVGTGMKKTSFQRAKS-OH), the results for the EC50 at NPSR receptor [1] and on NPSR receptor [2] were 36.9 nM and 44.6 nM, respectively.
The matching figures for `CC[C@H](C)[C@H](NC(=O)CNC(=O)[C@H](CC(N)=O)NC(=O)[C@H](CCCNC(=N)N)NC(=O)[C@H](Cc1ccccc1)NC(=O)[C@@H](N)CO)C(=O)NCC(=O)N[C@H](C(=O)NCC(=O)N[C@@H](CCSC)C(=O)N[C@@H](CCCCN)C(=O)N[C@@H](CCCCN)C(=O)N[C@H](C(=O)N[C@@H](CO)C(=O)N[C@@H](Cc1ccccc1)C(=O)N[C@@H](CCC(N)=O)C(=O)N[C@@H](CCCNC(=N)N)C(=O)N[C@@H](C)C(=O)N[C@@H](CCCCN)C(=O)N[C@@H](CO)C(=O)O)[C@@H](C)O)[C@@H](C)O` [I^6-NPS] (H-SFRNGIGTGMKKTSFQRAKS-OH): 174 nM and 280 nM.

(Values after publication PMC3873911 (PLoS ONE, 2013).)
